Laboratory results taken from the RNAGym collection of RNA variant scans (doi:10.1073/pnas.2313332121).

B1: TPR t1 (parent)
chain: GACCAAUCUGCCCUCAGAGCUCGAGAACAUCUUCGGAUGCAGAGGAGGCAGGCUUCGGUGGCGCGAUAGCGCCAACGUCCUCAACCUCCAAUGCAUCCCACCACAUGAUGAUGCCUGAAGAGCCUUGGUUUUUUG

Variants of: B1
Experiment: polymerase ribozyme fitness, log enrichment relative to wild type (log ratio); higher = more active; in vitro selection for triplet polymerase activity
In short: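 Libraries of mutants in each subunit of a heterodimeric triplet polymerase ribozyme were generated by PCR and transcribed. In triplicate, each went through one in vitro selection round: annealing with biotinylated primer, partner subunit and triplets; frozen incubation at −7 °C; gel excision of extended constructs; streptavidin-bead capture; RT-PCR. Fitness, taken from Illumina sequencing of input and output libraries, is the logarithm of a genotype's enrichment over wild-type enrichment, averaged across replicates with inverse-variance weights. The logarithm is base 2, and genotypes needed ≥10 input reads and ≥1 read per output to be kept.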

Row | Variant | polymerase ribozyme fitness (log ratio)
1 | A2U G93U | -2.62
2 | G47U G110A | -2.29
3 | A27U C123U | -1.65
4 | C85U U112A G122U U126G | -4.47
5 | A27U U96G G110U | -7.43
6 | C12G C72A | -0.123
7 | C15U A50U G120C | -0.665
8 | G39U G44U C53G C62A C98U U112A U129C U130A | -5.78
9 | C12A C49A C88A G110U | -1.74
10 | A50U U81A A100C | -1.2
11 | C13U G39A A68C A91G C123A | -7.34
12 | C13A U38A C53U C89A | -4.39
13 | G63A C79A G128C | -4.78
14 | U9C G52A C89A G117A | -1.63
15 | C13U C34U A111C C124U | -5.41
16 | A6U G10A G71A | 0.159
17 | C3A C97U | -2.33
18 | C13A A27C C70U | -5.92
19 | G48U C72A | -0.467
20 | G10A C80U | -0.522
21 | U78C A121U | 1.42
22 | A43U U54A G122U | -2.82
23 | A29U U59G G120C | -1.14
24 | U21A G39C C49U G63A A75G A121C | -2.73

Row | Variant | polymerase ribozyme fitness (log ratio)
25 | U38G C49G | -2.14
26 | G36U A50C A84U | -1.94
27 | G10C G42C G44U C72U U87G | -5.88
28 | G45C U130C | -2.26
29 | C15A A41U | -3.45
30 | C28U C49A G113C | -3.97
31 | U9C G47U C49U U129A | -3.07
32 | G69A U129G | -3.2
33 | A50G C86A C115G | -2.42
34 | U7A C53U | -0.0186
35 | C4U U7A C11A | -0.665
36 | C88A C97U U109A G110C | -6.36
37 | C56A C115U U130A | -1.24
38 | C3A U7A G57U G60C A83U A121C | -1.26
39 | C53A G69U U78G C82A | -0.279
40 | G44A G48C C56A | -1.29
41 | C73G C104A | -1.94
42 | C12A C62A G77A | -3.27
43 | G10C U59G C88A C104A | -3.65
44 | C40U G52U U96G A105U G120A G128C U131G | -6.51
45 | G45A C115A | -1.15
46 | U21G C40A U92A | -2.98
47 | C49G U92C | -1.53
48 | C11A G45U A84G C101U G122A | -2.1

Row | Variant | polymerase ribozyme fitness (log ratio)
49 | G36U U132A | -0.893
50 | A6G G10U C56A G57A G58A G69U C86U | -1.09
51 | C15G C98U | -4.22
52 | A37U C86U A105G A121C U132C | -1.31
53 | G44A C72U | -1.55
54 | G127A G135U | -2.16
55 | U54G C85G U133A | -1.09
56 | G10A G19A | -0.895
57 | C8U C22G G45A G47C A100U | -4.96
58 | G36A C62U C72U | -0.886
59 | U54C C56A C85G G117A | -4.42
60 | C73U G110A | -0.705
61 | C56G G120C | 0.755
62 | C13G A43G | -3.37
63 | G36C A50U | -1.67
64 | C13A A27C U129A | -5.35
65 | U55G G69C A119U G127C | -1.89
66 | U106C U131C U132A | -1.1
67 | C15G C115A | -2.88
68 | A41C G51C | -6.13
69 | C22G A50G C73G C94A G120C | -4.89
70 | C70U C79U G93U | -2.15
71 | C85G A119G | -0.0195
72 | G47U C53U G120U | -1.25

Row | Variant | polymerase ribozyme fitness (log ratio)
73 | U7A C13U A27G G36U A50C | -2.73
74 | C8G C11G A41C C49A | -0.887
75 | A16G G69U C73U C99U | -2.5
76 | C53U C62G | -1.49
77 | G58C U78G A90C A118U G127C | -2.89
78 | C12A A26G G57A U78A C124G | -1.04
79 | G77U A119G | -0.758
80 | C34A U116C | -5.3
81 | U59C U78C A83U C115A | -1.1
82 | G60A U92G C115A G120C | -2.03
83 | G10C G120U | -1.23
84 | C53A U81G A90G | 0.427
85 | C53U C62U A111U A118U | -3.63
86 | C72A C86A | -0.267
87 | G48A G58A U78C G110A | -1.9
88 | U78G C80U | -0.927
89 | U7G C70G | -2.23
90 | A41U G52C C124U U131C G135U | -1.81
91 | G60A C94U C124U | 1.59
92 | C8U C12G U14G G60A U78G G113A | -3.01
93 | A18C G45U | -3.69
94 | A37G C104U G113A U130G | -1.23
95 | A37U C56G | -1.11
96 | A5U G39U G47C C72U | -4.21

Row | Variant | polymerase ribozyme fitness (log ratio)
97 | C62A G77U | -1.77
98 | C3A U9A G52U C88G A91C G127U | -1.59
99 | C49U A66G G120C C123G | -1.48
100 | A6G G42C G52U | -2.37
101 | C8A | 0.459
102 | G44U U59G G120A | 0.601
103 | C4A G93A G120C U126G | -1.92
104 | A18C C115G A119G | 1.41
105 | C12G C34A C56U | -2.05
106 | G39U G60A C76G | -3.27
107 | C13A G120A | -0.19
108 | C80A A84U | -3.74
109 | G23A C56U | -3.66
110 | C56A C76G | 0.138
111 | A2C G45A G57A C114U C124U G127C | -5.9
112 | U9G G10C | 0.723
113 | A2G A74C | -0.276
114 | C88A C89G C123U U134G | 0.911
115 | G47A G51A | -4.37
116 | C12A C13A U59G G127A | -3.41
117 | G47A C102G | -5.8
118 | C15A C28G G36A C40U G110C U112C C115A G117U G120A | -3.11
119 | U7A C15A C62U C64U G93U | -1.99
120 | C53U G60U C80U G93C C97U C101U U133A | -3.62

Row | Variant | polymerase ribozyme fitness (log ratio)
121 | G48A G63A C101A | -2.45
122 | G36C C86U | -1.65
123 | C11A G93C C102A | -3.43
124 | A50C C56G A121U | 1.61
125 | U38A C49U C88U | -1.59
126 | A84U G117C C124G | -1.4
127 | A27U C70U G122A | -3.96
128 | A6U A27U U81A | -3.93
129 | A6C C13G G17A A18G | -4.66
130 | A6U G60U C115A G117U | -4.41
131 | C40A C85A | -1.95
132 | A5C C11U A43U U59C G60A | -4.12
133 | G51C C72A | -3.1
134 | G47A A75G U96C | -0.307
135 | G47U G93U | -2.97
136 | C3U U38G C62U G120A A121G G122A C123G U125C | -0.77
137 | C64U U81A | -0.925
138 | A26G C114U | -3.27
139 | G69A G120U U130A | -2.09
140 | C53A C88U C101A | 0.356
141 | C62G A90U | -3.82
142 | A2G A50U U81A | 0.17
143 | G69C C80U | -2.38
144 | G25A A26G A46U G63A A118C G120A | -5.5

Row | Variant | polymerase ribozyme fitness (log ratio)
145 | C8G G39U C70U U78A | -0.697
146 | C40G A74G C86A | -1.94
147 | A27U C89U | -2.8
148 | G47U C53A C114A | -2.64
149 | G25U G61U | -5.8
150 | G10A U33C | -4.02
151 | A41U C89U | -1.32
152 | C4G C72U | -1.37
153 | A16G A41C A50U U81A U106A | -2.3
154 | C4A A29G C88A | -3.39
155 | C53G G110U | -1.58
156 | U92C C123G | 0.159
157 | U7G G23C C82U C86G G110C | -7.53
158 | U106A U125A | -0.469
159 | U7A A18U U59C | -2.69
160 | U59G G77U G117A | -1.91
161 | U38A C86G A118U | -1.76
162 | C72U U78G U109C | -5.41
163 | C12U C56U G69U U112G A119U | -2.27
164 | C4G G61A U87G | -2.28
165 | C11G A105U | -2.2
166 | A46G A74C U133A | -0.745
167 | C49A C56A U130C | -0.746
